Data reported in publication PMC3696401.

Molecular target: IRBIT (UniProt Q80SW1)
Experiment: reciprocal co-IP from co-transfected cells
Details: reference: wild-type IP3R1; sites S1589,S1755

UniProt Q80SW1, sequence (Q80SW1 whole entry, looked up): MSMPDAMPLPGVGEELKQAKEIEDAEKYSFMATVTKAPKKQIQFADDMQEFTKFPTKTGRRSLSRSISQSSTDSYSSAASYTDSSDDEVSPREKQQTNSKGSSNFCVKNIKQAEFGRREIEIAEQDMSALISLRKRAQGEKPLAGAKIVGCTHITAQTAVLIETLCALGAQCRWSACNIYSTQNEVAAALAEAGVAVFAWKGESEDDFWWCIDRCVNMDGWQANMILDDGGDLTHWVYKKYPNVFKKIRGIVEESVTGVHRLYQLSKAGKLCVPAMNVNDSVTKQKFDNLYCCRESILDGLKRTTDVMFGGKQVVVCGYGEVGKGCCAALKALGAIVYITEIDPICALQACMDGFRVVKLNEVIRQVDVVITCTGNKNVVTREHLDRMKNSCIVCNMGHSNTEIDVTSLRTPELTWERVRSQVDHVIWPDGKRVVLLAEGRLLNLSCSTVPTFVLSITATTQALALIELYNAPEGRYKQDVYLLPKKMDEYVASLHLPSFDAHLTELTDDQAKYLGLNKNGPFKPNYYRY

binding against the reference: stronger
Substance: IP3R1 (from UniProt P29994-3) S1589A/S1755A (AA)
